Source: paper PMC9597352

Target: T1, GST-Arl8b, Q9NVJ2
T1 chain: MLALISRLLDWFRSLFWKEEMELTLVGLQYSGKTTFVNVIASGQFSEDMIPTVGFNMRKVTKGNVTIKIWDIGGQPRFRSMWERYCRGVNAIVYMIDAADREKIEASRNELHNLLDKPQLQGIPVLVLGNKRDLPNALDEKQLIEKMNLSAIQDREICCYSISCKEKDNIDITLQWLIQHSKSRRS
Assay: pull-down; GST-Arl8b on glutathione-agarose beads loaded with 20 mM GTP (TAP lysis buffer, 10 mM MgCl2, 30 min, 4°C), then HEK293T lysates of transfected cells, 2 h, 4°C; anti-FLAG blot
Settings: remark: other sources report otherwise

pulldown relative to RUFY1 (densitometry, normalized to input): 2 fold
B1: RUFY3-FLAG, Q7L099 1-469 (natural protein)
chain: MSALTPPTDMPTPTTDKITQAAMETIYLCKFRVSMDGEWLCLRELDDISLTPDPEPTHEDPNYLMANERMNLMNMAKLSIKGLIESALNLGRTLDSDYAPLQQFFVVMEHCLKHGLKAKKTFLGQNKSFWGPLELVEKLVPEAAEITASVKDLPGLKTPVGRGRAWLRLALMQKKLSEYMKALINKKELLSEFYEPNALMMEEEGAIIAGLLVGLNVIDANFCMKGEDLDSQVGVIDFSMYLKDGNSSKGTEGDGQITAILDQKNYVEELNRHLNATVNNLQAKVDALEKSNTKLTEELAVANNRIITLQEEMERVKEESSYILESNRKGPKQDRTAEGQALSEARKHLKEETQLRLDVEKELEMQISMRQEMELAMKMLEKDVCEKQDALVSLRQQLDDLRALKHELAFKLQSSDLGVKQKSELNSRLEEKTNQMAATIKQLEQSEKDLVKQAKTLNSAANKLIPKHH
